Reference: patent publication US9114109B2, “Five-coordinate neuroglobin and use thereof as a blood substitute” (University of Pittsburgh—Of the Commonwealth System of …, priority 2009, dated 2015)

Experiments:
SHSY5Y neuronal cells = experiment: Determination of cGMP in SHSY5Y neuronal cells under hypoxia; assay type: cell-based; settings: 6 hours hypoxia (1% oxygen), no exogenous nitrite, cells expressing the protein
Description: SHSY5Y cells, expressing the GFP vector, wild type Ngb or H64L mutant Ngb were plated on Corning® CellBIND® Surface 100 mm culture dishes at a concentration of 5-7.5×10^5 cells/plate and grown to 80-90% confluence. After four days of growth, the cells were incubated for 6 hours under hypoxic conditions (1% oxygen). Following hypoxic treatment, the cGMP levels were measured using the cyclic GMP EIA Kit (Cayman Chemicals catalog #581021) according to the manufacturer's instructions. Protein levels were measured and used to normalize results.

[1] = Determination of nitrite binding constants to met-Ngb (difference spectra titration); settings: met-Ngb 10 μM, 200 mM phosphate buffer, pH 7.4, 25° C.; read-out: Kd (NO2^−)
Description: To determine the binding constant of nitrite to metNgb, 10 μM wild type and mutant Ngb in 200 mM phosphate buffer, pH 7.4, were incubated in a cuvette at 25° C. with increasing concentrations of nitrite and the UV—visible spectra were recorded after each increase in nitrite concentration. The constant KD for each protein was determined by interpolation of the absorbance data following procedures in Nicolis et al. (Biochem J 407:89-99, 2007).

[2] = Reaction of met-Ngb with nitrite to produce nitrosyl-Ngb (nitrite ferric heme reduction); assay type: biochemical; settings: met-Ngb with nitrite in the presence of dithionite
[3] = tested on: isolated rat liver mitochondria; experiment: Hypoxic inhibition of respiration of isolated mitochondria; assay type: cell-based; settings: 5 μM protein with 20 μM nitrite, hypoxia
Description: (§1) Mitochondria were isolated from the livers of male Sprague Dawley rats and incubated with wild-type or mutant Ngb proteins in a sealed, stirred chamber at 37° C. State 3 respiration was stimulated with succinate (15 mM) and ADP (1 mM) and oxygen consumption was measured with a Clark-type oxygen electrode. To measure inhibition of respiration in hypoxic conditions, respiring mitochondria were allowed to consume oxygen until the chamber became anoxic and then the chamber lid was removed to allow the diffusion of air back into the chamber. The rate of mitochondrial respiration was greater than the rate of oxygen entering the chamber such that the oxygen electrode trace remained at zero while the mitochondria were respiring. Nitrite was added to the chamber prior to the removal of the lid and deviation of the oxygen trace from a zero reading signified a decrease in respiration rate. All experiments were performed under conditions where substrates were not limiting. The extent of respiratory inhibition was quantified by measuring the time from equilibration of the mitochondria with air to the time when the oxygen trace deviated from zero. This time to inhibition was expressed as a percentage of maximal inhibition, where 100% inhibition was defined as the time to inhibition in the presence of cyanide and the time to the exhaustion of substrates was used as a measure of 0% inhibition. Similar experiments were performed with SHSY5Y cells suspended in the respirometer and treated with the uncoupler FCCP (5 μM) to measure hypoxic inhibition of cellular respiration.

[4] = Anaerobic reaction of deoxygenated globins with excess nitrite (nitrite reductase kinetics, absorption / stopped-flow spectroscopy); assay type: biochemical
Description: Oxygen contamination was prevented by application of positive argon pressure without a channel for gas escape. Concentrations of single species during reactions were determined by least squares deconvolution of the visible absorption spectrum into standard reference spectra using Microsoft Excel analysis. OxyNgb was included to confirm successful deoxygenation before the reaction. […] Fast kinetic studies were performed using an Applied Photophysics DX-17 stopped-flow instrument equipped with rapid-scanning diode array detection. […] To determine bimolecular rate constants all reactions were analyzed with Pro-K software (Applied Photophysics) using singular value decomposition followed by fitting of the reduced data matrix to a pseudo-first order kinetic model.

[5] = EPR spectroscopy of iron-nitrosyl-heme formation from nitrite; assay type: biochemical; settings: 1 mM nitrite
Description: Iron nitrosyl species were measured by EPR spectroscopy using a Bruker EMX 10/12 spectrometer operating at 9.4 GHz, 5-G modulation, 10.1-milliwatt power, 327.68-ms time constant and 163.84-s scan over 600 G at 110 K as described previously (Basu et al., J Biol Chem 283:32590-32597, 2008; Azarov et al., J. Biol. Chem. 280:[…], 2005). The concentrations of Mb and Ngb species were determined by performing the double integral calculation and comparing to standard samples.

SHSY5Y cells = experiment: Hypoxic inhibition of cellular respiration in SHSY5Y cells expressing Ngb; assay type: cell-based; settings: cells stably transfected with GFP-tagged Ngb, nitrite added, FCCP
Description: as §1, with “Similar experiments were performed with SHSY5Y cells suspended in the respirometer and treated with the uncoupler FCCP (5 μM) to measure hypoxic inhibition of cellular respiration.” left out

[6] = Direct measurement of NO release in gas phase (chemiluminescence); assay type: biochemical
From the text: Once a stable baseline was established Ngb was reacted with a known amount of nitrite as previously described (Huang et al., J Clin Invest 115:2099-2107, 2005).

B1: H64L: stable five-coordinate mutant of human neuroglobin, His64 to Leu substitution, SEQ ID NO: 9 (protein)
chain: MERPEPELIRQSWRAVSRSPLEHGTVLFARLFALEPDLLPLFQYNCRQFSSPEDCLSSPEFLDLIRKVMLVIDAAVTNVEDLSSLEEYLASLGRKHRAVGVKLSSFSTVGESLLYMLEKCLGPAFTPATRAAWSQLYGAVVQAMSRGWDGE
In the case of B1, the “cGMP levels (in words)” value (SHSY5Y neuronal cells) is reported as “significantly increased”, the Kd [1] is reported as 170 ± 80 µM and the “BRC of nitrite ferric heme reduction” value [2] is reported as 0.032 ± 0.002. For the same molecule, the “inhibition of respiration (cyanide = 100%)” value [3] was 96±2%, the “BRC higher than the wild type Ngb” value ([4]; 100 μM nitrite, excess dithionite, relative to wild type) was “approximately 2000 fold” and the “relative percentage of the total absorbance change (Soret peak 425 nm) in the first 60 minutes” value ([4]; 1 mM nitrite, 0.1 M HEPES pH 7.4, H64L-Ngb normalized to 100%) was 100%. For the same molecule, the “time to end point of the reaction (in words)” value ([4]; 1 mM nitrite, pH 7.4) was “reached the end point in the first minute”, the “BRC from linear fit of kobs versus nitrite concentration (stopped-flow)” value ([4]; nitrite 10-1000 μM, 25° C., pH 7.4) was 259 ± 8 M⁻¹ s⁻¹ and the “rate of nitrite reaction at acidic pH” value ([4]; pH 6.5 and 25° C.) was “above 2,500 M^−1 s^−1”. For the same molecule, the “nitrite reduction to NO, faster than wild type neuroglobin” value ([4]; relative to wild type) was “approximately 2000 times”, the “completion of iron-nitrosyl formation by EPR (in words)” value [5] was “almost complete in one minute” and the “rate of iron-nitrosyl-Ngb / NO formation by EPR (in words)” value ([5]; 40±5 μM protein) was “dramatically increased the rate of NO formation”. For the same molecule, the “extent of respiration inhibition compared to cyanide” value (SHSY5Y cells) was about 40%, the “rate of NO detected in gas phase (in words)” value ([6]; 20 μM Ngb, 1 mM nitrite, anaerobic) was “increased” and the “NO generation with increasing amounts of nitrite (in words)” value ([6]; 30 μM protein, nitrite 10-1000 μM) was “a readily proportional NO generation response was observed”.
